Source: PMC3968025, “Metabolic and Target-Site Mechanisms Combine to Confer Strong DDT Resistance in Anopheles gambiae” (PLoS ONE, 2014)

Target: the molecule itself
Test: crystal structure; ZAN/U:GSH crystals, hanging drops at 22°C, 30% PEG 6000, 0.1 M Bis-Tris pH 6.5, 1 mM β-ME; soaked with DDE (not seen in the maps); 2.3 Å; two biological dimers in the asymmetric unit

B1: GSTE2 ZAN/U variant (epsilon-class glutathione-S-transferase GSTE2 of Anopheles gambiae, allele ZAN/U 1C) (enzyme, UniProt Q7PVS6 1-221, looked up)
chain: MSNLVLYTLHLSPPCRAVELTAKALGLELEQKTINLLTGDHLKPEFVKLNPQHTIPVLDDNGTIITESHAIMIYLVTKYGKDDSLYPKDPVKQARVNSALHFESGVLFARMRFTFERILFFGKSDIPEDRVEYVQKSYELLEDTLVDDFVAGPTMTIADFSCISTISSIMGVVPLEQSKHPRIYAWIDRLKQLPYYEEANGGGGTDLGKFVLAKKEENAKA
notes: Cloned from full-length cDNA; the model runs to Ala221; One of GenBank JX840597-JX840599; Crystallised as the complex with glutathione (GSH, 1:1.2 molar ratio); biological dimer; Natural allelic variant; I114T is written against the Kisumu (ancestral) allele; also called Gste2-114T; ZAN/U:GSH; not shown: His6, N-terminal, cleaved; SUMO, N-terminal, cleaved
- stoichiometry N: 2
